{
  "source": "paper PMC9079946",
  "about": "“Enzyme-free ultrasensitive fluorescence detection of epithelial cell adhesion molecules based on a toehold-aided DNA recycling amplification strategy†”",
  "binders": {"B1": {"name": "EpCAM aptamer / strand a duplex (mixed)", "DNA 1": "CACTACAGAGGTTGCGTCTGTCCCACGTTGTCATGGGGGGTTGGCCTG", "DNA 2": "AGACGCAACCTCTGT"}},
  "key": {"CD86": {"biological_target": "CD86 (UniProt P42081 24-247)", "sequence (P42081 24-247)": "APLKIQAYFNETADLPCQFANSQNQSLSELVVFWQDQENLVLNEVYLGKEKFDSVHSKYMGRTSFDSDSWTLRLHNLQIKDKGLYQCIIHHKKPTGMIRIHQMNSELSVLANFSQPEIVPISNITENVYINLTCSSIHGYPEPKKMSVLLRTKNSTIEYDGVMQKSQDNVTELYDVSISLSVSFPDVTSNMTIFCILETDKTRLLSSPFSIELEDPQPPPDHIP", "assay": "strand a displacement with toehold-aided fluorescence amplification; 100 ng/mL CD86; slight fluorescence change only; 20 mM Tris-HCl, 100 mM NaCl, 10 mM KCl, 10 mM MgCl2, pH 7.5, 37 °C, 30 min", "conditions": "protein: commercial; partial duplex: 15 nt strand a hybridised to 48 nt aptamer; single-stranded 5' and 3' aptamer overhangs"}, "EpCAM": {"biological_target": "T1, EpCAM (UniProt P16422 24-265)", "T1 sequence": "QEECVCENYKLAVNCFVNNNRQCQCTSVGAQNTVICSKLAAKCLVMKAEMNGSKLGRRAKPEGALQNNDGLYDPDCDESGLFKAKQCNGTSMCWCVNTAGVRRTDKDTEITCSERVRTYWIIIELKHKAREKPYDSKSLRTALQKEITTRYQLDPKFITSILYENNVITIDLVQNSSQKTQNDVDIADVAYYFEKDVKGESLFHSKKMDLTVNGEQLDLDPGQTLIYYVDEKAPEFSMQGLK", "assay": "strand a displacement with toehold-aided fluorescence amplification; 30 nM aptamer/strand a, 50 ng/mL EpCAM, 10 mM Mg2+; strands b, c, d, e 100 nM; 20 mM Tris-HCl, 100 mM NaCl, 10 mM KCl, 10 mM MgCl2, pH 7.5, 37 °C, 30 min", "conditions": "protein: commercial; partial duplex: 15 nt strand a hybridised to 48 nt aptamer; single-stranded 5' and 3' aptamer overhangs"}},
  "data": [
    {"binder": "B1", "values": [
      {"measurement": "binding result", "setting": "CD86", "result": "no binding"},
      {"measurement": "binding result", "setting": "EpCAM", "result": "binds"}
    ]}
  ]
}
